The supplement of paper PMC11865577

Tests used:
Assay in all cases: pull-down binding Z-score (relative to library population); higher = stronger binding
[1] = test system: TO-3-N3 (biotin conjugate); settings: RNA library: Library-2
Procedure, shortened: (§1)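 Heat-folded RNA library (1 μg, Cy5 or Cy3 end label, phosphate/NaCl/KCl buffer) was captured for 60 min at 25 °C on streptavidin beads displaying 100 pmol of biotin-conjugated small molecule, then washed three times. The bound fraction, eluted in hot SDS, was hybridised to a DNA barcode microarray at 55.5 °C for 20 h. Z-scores for binding were taken against the library mean and standard deviation after beads-only subtraction and trimmed averaging of replicate barcoded probes.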

[2] = test system: TO-N3-2 (biotin conjugate); settings: RNA library: Library-2
Procedure, shortened: as §1

[3] = test system: TO-3-N3-2 (biotin conjugate); settings: RNA library: Library-2
Procedure, shortened: as §1

[4] = test system: G-clamp-N3 (biotin conjugate); settings: RNA library: Library-1 (pre-miRNA loops + repeats)
Procedure, shortened: as §1

TO-N3 (biotin conjugate) = settings: RNA library: Library-2
Procedure, shortened: as §1

Sequence | pull-down binding Z-score [1] | pull-down binding Z-score [2] | pull-down binding Z-score [3] | pull-down binding Z-score [4] | pull-down binding Z-score (TO-N3 (biotin conjugate))
CUUUCUGUUGUCUAAAAGAAAAGAACG [hsa-mir-521-1] | -0.211 | 0.0505 | 0.0499 | 0.795 | -0.124
CUUUCUGUUGUCUGAAAGAAAAGAAAA [hsa-mir-522] | -0.109 | 0.775 | 0.118 | -0.228 | 0.617
CUUUCUGUUGUCUGAAAGAAAAGAAAG [hsa-mir-520c_520b_519c_519b] | 0.176 | 0.38 | 0.102 | 0.44 | 0.458
CUUUCUGUUGUCUGAAAGAAAGGAAAG [hsa-mir-519a-1_519a-2] | -0.467 | -0.239 | -0.315 | -0.55 | -0.572
CUUUCUGUUGUCUGAGAGAAAAGAAAG [hsa-mir-520a] | -0.684 | -0.553 | -0.385 | 0.6 | -0.74
CUUUGCUACUGCUC [hsa-mir-6072] | -0.202 | 0.112 | -0.0975 | -0.385 | -0.000442
CUUUGGUGGCUAUGGUUGACUGGGCCACUCAGAG [hsa-mir-4468] | -0.366 | 0.846 | -0.332 | 2.29 | -0.123
CUUUGUCAUUAAAACCAAUAACAAAA [hsa-mir-548ap] | 0.331 | -0.638 | 0.223 | -0.92 | 0.0976
CUUUGUCUGACUACAAUAUUCAAAAG [hsa-mir-4426] | 0.0486 | -0.569 | 0.0275 | -1.96 | -0.0832
CUUUGUGAUUUUAUGAGAACAAAG [hsa-mir-3173] | -0.938 | -1.27 | -0.486 | 0.801 | -1.22
CUUUUAGAGUAAUUGUGAAACUGUUUUUCAAAG [hsa-mir-562] | -0.531 | -0.462 | -0.0695 | 0.748 | -0.769
CUUUUAUAUCAAGGCACAUAAAAG [hsa-mir-3910-1] | -0.493 | -1.17 | -0.271 | -1.7 | -0.626
CUUUUAUGUGCCUUGAUAUAAAAG [hsa-mir-3910-2] | -0.556 | -0.682 | -0.297 | -0.124 | -0.644
CUUUUGGAAAAUAGAAAAG [hsa-mir-3184] | -0.24 | -0.0491 | 0.161 | 1.56 | -0.433
CUUUUGUUCAAAUAAAAAUGCAAAAG [hsa-mir-651] | -0.729 | -1.25 | -0.367 | -0.842 | -1.06
CUUUUUGCCACCUGAGCACAGUCAGCAGUCAGCAUAAAA [hsa-mir-4275] | 0.6 | 1.15 | 0.292 | 0.39 | 1.13
CUUUUUGCUGAUGGAGGGUCUUGCCUCCAUGGGGAUGGCUG [hsa-mir-4502] | 0.828 | 0.571 | 0.159 | 1 | 0.938
GAAAAAUCCCUGUUAACUUUC [hsa-mir-6833] | -0.143 | 0.133 | 0.174 | -0.686 | -0.225
GAAAACUUUGGAGAAAAAUUUUC [hsa-mir-4659a] | -0.765 | -0.857 | -0.258 | -0.714 | -1.04

Sequence | pull-down binding Z-score [1] | pull-down binding Z-score [2] | pull-down binding Z-score [3] | pull-down binding Z-score [4] | pull-down binding Z-score (TO-N3 (biotin conjugate))
GAAACAUCUUUUAC [hsa-mir-4514] | -0.428 | -0.469 | -0.191 | -0.862 | -0.551
GAAAUAGGCUGCGAAGAUAACAGUAUUUC [hsa-mir-3942] | -0.872 | -0.482 | -0.17 | 0.773 | -0.979
GAAAUGUGUGGAAGAUGGCAUUUC [hsa-mir-4482] | -0.346 | 0.278 | -0.00894 | 2.74 | -0.302
GAACACUAUUCCAUUGUGUUC [hsa-mir-588] | -0.971 | -1.31 | -0.701 | 0.0194 | -1.33
GAACCCAAGAAAAGCUGACUUGGAGGUCCC [hsa-mir-4667] | 1.21 | 1.27 | 0.578 | -0.432 | 1.47
GAACCCAGGGAGCCAGACUGCCUGGGUUC [hsa-mir-607] | 1.05 | -0.0198 | -0.182 | -0.0852 | 0.843
GAACUAACUAACCAGAACUAUUUUGUUC [hsa-mir-4652] | 0.249 | -0.742 | 0.0681 | -1.48 | -0.0697
GAACUUUUACGGUGAACCAGGAGGUUC [hsa-mir-629] | 0.0537 | -0.0865 | -0.139 | -0.428 | -0.0515
GAAGAAGAAGAAGAAGAAGAAGAAGAAGAAGAAGAAGAAGAAGAAGAA [r(GAA)16] | 1.7 | 3.94 | 3.35 | -1.35 | 3.53
GAAGAUUCUGAAAAUCACUAACU [hsa-mir-6878] | 0.159 | -0.0867 | 0.167 | -1.6 | 0.273
GAAGCACUGGUUAUGAUUUGCAUC [hsa-mir-3126] | -0.087 | 0.429 | 0.159 | -0.739 | 0.0904
GAAGCCGCUCCCACCUGACCCUCACGGCCUC [hsa-mir-3605] | 1.3 | 1.46 | 0.468 | -0.691 | 1.33
GAAGCCUUGAUCAGAAGCUAGGAAGGCUUC [hsa-mir-4762] | 0.782 | 0.593 | 0.433 | 1.95 | 0.654
GAAGCGAGAUGUUUGUCUAAA [hsa-mir-6835] | 0.00611 | 0.915 | 0.262 | -0.211 | 0.398
GAAGCUCCUAUAGCUCCUGUAGCUUC [hsa-mir-578] | 0.48 | 0.587 | 0.166 | -0.978 | 0.407
GAAGCUGUAAGACACAGCUAAGCUUU [hsa-mir-30d] | -0.376 | 0.0477 | -0.00751 | -0.32 | -0.169
GAAGCUGUAAGGUGUUCAGAGGAGCUUU [hsa-mir-30e] | 0.57 | 1.1 | 0.908 | 2.63 | 0.977
GAAGCUGUGAAGCCACAGAUGGGCUUU [hsa-mir-30a] | -0.0778 | 0.641 | 0.0568 | 0.763 | 0.224
